Experimental data reported in patent publication US20220332804A1 (CSL INNOVATION, published 2022).

What was measured:
Assay in all cases: SPR, antibody captured, C2 as analyte;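 note: biacore SPR at 37 °C, anti-C2 mAbs captured via goat anti-human IgG on CM5 chips, double-referenced sensorgrams fit to a 1:1 kinetic or steady-state model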
human C2 S720A = target: T1, human C2 S720A (human, UniProt P06681 21-752)
T1 sequence: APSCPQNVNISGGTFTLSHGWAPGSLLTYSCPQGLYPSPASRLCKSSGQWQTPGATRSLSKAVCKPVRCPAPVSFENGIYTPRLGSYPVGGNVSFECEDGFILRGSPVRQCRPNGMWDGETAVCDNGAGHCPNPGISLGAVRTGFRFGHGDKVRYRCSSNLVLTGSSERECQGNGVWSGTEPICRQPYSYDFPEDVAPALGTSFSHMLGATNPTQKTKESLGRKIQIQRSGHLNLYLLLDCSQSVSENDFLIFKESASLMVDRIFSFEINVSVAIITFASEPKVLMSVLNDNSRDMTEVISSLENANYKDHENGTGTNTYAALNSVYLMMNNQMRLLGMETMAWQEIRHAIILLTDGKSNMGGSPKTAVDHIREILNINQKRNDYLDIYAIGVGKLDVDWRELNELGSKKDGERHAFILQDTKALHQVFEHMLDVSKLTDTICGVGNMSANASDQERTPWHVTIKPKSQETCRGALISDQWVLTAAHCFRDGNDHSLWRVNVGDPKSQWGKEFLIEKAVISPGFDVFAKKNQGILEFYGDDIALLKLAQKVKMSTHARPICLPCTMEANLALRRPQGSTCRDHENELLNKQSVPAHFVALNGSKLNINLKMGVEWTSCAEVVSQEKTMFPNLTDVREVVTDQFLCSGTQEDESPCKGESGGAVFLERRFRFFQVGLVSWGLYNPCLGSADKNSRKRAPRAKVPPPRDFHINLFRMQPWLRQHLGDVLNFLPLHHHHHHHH

human C2 K415A = target: T2, human C2 K415A (human, UniProt P06681 21-752)
T2 sequence: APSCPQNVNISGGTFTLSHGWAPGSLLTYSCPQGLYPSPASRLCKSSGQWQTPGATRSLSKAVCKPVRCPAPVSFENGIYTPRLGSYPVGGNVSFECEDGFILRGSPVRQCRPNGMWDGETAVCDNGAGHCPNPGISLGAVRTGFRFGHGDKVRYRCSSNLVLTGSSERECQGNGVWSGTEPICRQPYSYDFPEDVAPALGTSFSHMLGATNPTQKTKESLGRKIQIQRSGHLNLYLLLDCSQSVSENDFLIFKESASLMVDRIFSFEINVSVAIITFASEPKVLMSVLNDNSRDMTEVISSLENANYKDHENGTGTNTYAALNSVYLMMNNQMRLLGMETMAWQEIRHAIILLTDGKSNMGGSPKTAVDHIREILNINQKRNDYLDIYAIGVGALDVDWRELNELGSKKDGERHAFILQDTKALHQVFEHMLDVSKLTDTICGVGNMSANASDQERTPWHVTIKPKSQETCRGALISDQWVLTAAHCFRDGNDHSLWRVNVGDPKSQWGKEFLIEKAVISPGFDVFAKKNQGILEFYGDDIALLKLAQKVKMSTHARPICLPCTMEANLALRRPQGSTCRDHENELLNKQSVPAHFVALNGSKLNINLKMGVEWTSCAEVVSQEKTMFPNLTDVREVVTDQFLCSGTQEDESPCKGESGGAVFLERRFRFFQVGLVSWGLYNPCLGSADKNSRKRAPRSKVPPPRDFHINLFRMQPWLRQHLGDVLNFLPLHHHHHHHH

human C2 V455A = target: T3, human C2 V455A (human, UniProt P06681 21-752)
T3 sequence: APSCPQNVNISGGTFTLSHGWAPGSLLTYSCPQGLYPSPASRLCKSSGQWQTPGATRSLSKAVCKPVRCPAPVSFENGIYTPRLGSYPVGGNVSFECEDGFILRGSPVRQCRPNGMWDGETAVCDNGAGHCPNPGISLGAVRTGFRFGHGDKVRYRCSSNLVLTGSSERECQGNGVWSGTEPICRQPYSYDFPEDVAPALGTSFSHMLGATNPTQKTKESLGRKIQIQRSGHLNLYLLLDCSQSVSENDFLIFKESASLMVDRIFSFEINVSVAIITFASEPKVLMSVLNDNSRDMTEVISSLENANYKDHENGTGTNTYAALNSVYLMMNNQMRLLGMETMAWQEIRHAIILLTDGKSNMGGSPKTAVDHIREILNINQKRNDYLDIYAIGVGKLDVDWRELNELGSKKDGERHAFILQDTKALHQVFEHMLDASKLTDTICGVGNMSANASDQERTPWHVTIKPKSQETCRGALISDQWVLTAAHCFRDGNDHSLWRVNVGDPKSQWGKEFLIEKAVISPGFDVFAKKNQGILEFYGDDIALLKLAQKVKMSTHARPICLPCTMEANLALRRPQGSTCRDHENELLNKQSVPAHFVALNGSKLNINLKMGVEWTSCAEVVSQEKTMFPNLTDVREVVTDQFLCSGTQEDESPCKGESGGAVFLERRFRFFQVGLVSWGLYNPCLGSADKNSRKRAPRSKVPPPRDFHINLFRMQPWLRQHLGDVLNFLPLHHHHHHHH

human C2 R510A = target: T4, human C2 R510A (human, UniProt P06681 21-752)
T4 sequence: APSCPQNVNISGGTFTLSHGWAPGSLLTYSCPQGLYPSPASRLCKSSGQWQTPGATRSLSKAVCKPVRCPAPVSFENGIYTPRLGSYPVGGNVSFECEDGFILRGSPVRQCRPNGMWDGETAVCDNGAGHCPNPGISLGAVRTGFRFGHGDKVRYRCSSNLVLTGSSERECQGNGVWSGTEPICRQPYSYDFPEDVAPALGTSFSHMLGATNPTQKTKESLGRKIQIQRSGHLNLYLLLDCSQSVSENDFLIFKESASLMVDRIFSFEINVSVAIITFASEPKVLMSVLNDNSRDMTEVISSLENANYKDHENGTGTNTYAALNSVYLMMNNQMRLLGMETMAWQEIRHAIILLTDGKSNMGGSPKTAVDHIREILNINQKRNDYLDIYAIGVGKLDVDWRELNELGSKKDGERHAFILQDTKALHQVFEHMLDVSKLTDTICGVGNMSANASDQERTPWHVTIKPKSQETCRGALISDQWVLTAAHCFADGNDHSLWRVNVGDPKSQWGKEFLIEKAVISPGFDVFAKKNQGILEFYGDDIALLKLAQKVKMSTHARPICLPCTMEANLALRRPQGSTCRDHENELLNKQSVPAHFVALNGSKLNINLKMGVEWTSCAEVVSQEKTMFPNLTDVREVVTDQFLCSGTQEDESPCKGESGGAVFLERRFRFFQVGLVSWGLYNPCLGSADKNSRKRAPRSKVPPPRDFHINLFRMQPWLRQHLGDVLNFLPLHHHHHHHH

B1: RF16-226 (antibody, human IgG4 S228P, lambda)
heavy: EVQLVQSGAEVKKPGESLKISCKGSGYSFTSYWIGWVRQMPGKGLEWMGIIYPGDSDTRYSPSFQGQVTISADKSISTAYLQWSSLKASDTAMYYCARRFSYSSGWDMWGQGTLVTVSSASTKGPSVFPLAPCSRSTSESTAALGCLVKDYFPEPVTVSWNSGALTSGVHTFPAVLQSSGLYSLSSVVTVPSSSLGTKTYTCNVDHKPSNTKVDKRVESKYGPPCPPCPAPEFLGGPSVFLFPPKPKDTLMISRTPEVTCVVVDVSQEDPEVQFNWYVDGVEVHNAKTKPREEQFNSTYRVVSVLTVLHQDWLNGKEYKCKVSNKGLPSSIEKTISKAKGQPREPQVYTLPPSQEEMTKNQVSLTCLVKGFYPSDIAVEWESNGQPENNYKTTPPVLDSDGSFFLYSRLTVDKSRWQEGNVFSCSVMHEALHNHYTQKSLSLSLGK
light: SYELTQPPSVSVSPGQTARITCSGDALTSKYVAWYQQKSGLAPLLVIYEDTRRPSGIPAKFSGSSSGSVATLTISGAHGDDEADYYCYSTDASGHQRVFGGGTKLTVLSQPKAAPSVTLFPPSSEELQANKATLVCLISDFYPGAVTVAWKADGSPVKAGVETTKPSKQSNNKYAASSYLSLTPEQWKSHRSYSCQVTHEGSTVEKTVAPTECS
notes: pH-dependent anti-C2 antibody from a phage display library; also called WT
Kd (human C2 S720A): 14.6 nM
Kd (human C2 K415A): 11.7 nM
Kd (human C2 V455A): 9 nM
Kd (human C2 R510A): 110 nM
